Ends that are not written are not given here.
Biological target: α3β1 integrin on PC12 cells (rat (PC12 cells)) (UniProt P49134)
Experiment: cell-based or functional assay

α3β1 integrin on PC12 cells (rat (PC12 cells)), sequence (P49134 21-798): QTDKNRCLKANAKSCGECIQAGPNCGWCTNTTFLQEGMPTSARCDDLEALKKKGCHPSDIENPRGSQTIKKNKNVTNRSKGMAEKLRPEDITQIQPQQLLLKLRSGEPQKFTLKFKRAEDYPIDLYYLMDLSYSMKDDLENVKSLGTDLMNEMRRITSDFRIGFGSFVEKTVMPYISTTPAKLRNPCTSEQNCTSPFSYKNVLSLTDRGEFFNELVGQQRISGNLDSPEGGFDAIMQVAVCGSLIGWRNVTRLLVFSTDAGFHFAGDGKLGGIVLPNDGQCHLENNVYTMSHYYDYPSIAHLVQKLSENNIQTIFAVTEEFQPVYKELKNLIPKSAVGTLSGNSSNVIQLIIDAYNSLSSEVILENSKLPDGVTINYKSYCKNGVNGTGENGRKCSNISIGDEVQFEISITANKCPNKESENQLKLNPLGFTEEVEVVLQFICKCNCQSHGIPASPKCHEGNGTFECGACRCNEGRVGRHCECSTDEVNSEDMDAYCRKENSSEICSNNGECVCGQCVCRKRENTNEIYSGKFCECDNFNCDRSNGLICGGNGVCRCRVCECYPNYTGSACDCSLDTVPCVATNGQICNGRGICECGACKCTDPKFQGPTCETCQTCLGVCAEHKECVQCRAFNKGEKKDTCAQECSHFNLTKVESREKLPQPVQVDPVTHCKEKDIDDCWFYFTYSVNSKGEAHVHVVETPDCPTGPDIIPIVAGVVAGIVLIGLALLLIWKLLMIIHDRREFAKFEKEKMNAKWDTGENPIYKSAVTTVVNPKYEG

Work on RNIPPFEGCIWN-NH2 [Ln2-LG3-P2 peptide (…)] yielded an inhibition of PC12 cell adhesion to coated rLG3 (25 µg/mL) by soluble peptide of 40 % inhibition.

Reference: patent US20120238503A1
